Test system: patients with pain due to osteoarthritis of the knee or hip
Experiment: WOMAC pain and functional score improvement in R475-OA-1688 clinical trial, stratified by OA proteomic risk score groups
Assay type: in vivo, human

B1: fasinumab (antibody, chains of the INN, looked up, V domains shown)
VH: QVQLVQSGAEVKKPGASVKVSCKVSGFTLTELSIHWVRQAPGKGLEWMGGFDPEDGETIYAQKFQGRVTMTEDTSTDTAYMELTSLRSEDTAVYYCSTIFGVVTNFDNWGQGTLVTVSS
VL: DIQMTQSPSSLSASAGDRVTITCRASQAIRNDLGWYQQKPGKAPKRLIYAAFNLQSGVPSRFSGSGSGTEFTLTISSLQPEDLASYYCQQYNRYPWTFGQGTKVEIK
notes: anti-NGF antibody (NGF antagonist) tested in phase 3 study R475-OA-1688
Q: For B1, which “efficacy compared with both NSAIDs or placebo treated patients” value (Fasinumab 1q4w, OA proteomic score high risk group) is on record?
A: The value was “has efficacy benefits”.

Q: What about the “efficacy compared with either NSAIDs or placebo” value (fasinumab 1q4w, patients in 1st to 3rd OA proteomic score quartiles) of the same molecule?
A: Its value is “maintains efficacy superiority”.

Q: And the “efficacy profile (both WOMAC pain and WOMAC functional scores)” value (patients in 1st to 3rd OA proteomic score quartiles, fasinumab 1q4w, FIG. 9 and FIG. 10)?
A: Its value is “better efficacy profile”.
